Consider one sequence from PMC3828344.

This data set deals with vesicular stomatitis virus particle (Vesicular stomatitis virus). Nature of the data set: electrochemical aptasensor (SWV).

“GCTAGCGAATTCCGTACGAAGGGCGAATTCCACATTGGGCTGCAGCCCGGGGGATCC [thiolated AG3 (aptasensor)]” registered a binding signal (% of current decrease) of 9.1.
